In experiment [1] the target is T1, recombinant PICP protein (procollagen type I C-terminal propeptide), heterotrimer of two PICP α1 chains and … (human, UniProt P02452 1219-1464; P08123 1120-1366).
T1 construct: Biotinylated for the yeast Fab selection; also called recombinant PICP antigen; PIPC; not shown: 8xHis tag conjugated to the N-terminus of the α1 chain; c-Myc tag conjugated to the N-terminus of the α2 chain
Kind of experiment: indirect ELISA, PICP coated at 2 ug/ml, anti-HA-HRP.

Experiment [2] has as its target T1, recombinant PICP protein (procollagen …). Kind of experiment: yeast surface Fab display, MACS and FACS with biotinylated PICP. The method, then: A method of selecting clones specifically binding to PICP proteins from the yeast Fab library are as follows: Antigen protein PICP and similar protein PIIICP were prepared with purity of 99% or higher by the method of the present invention. The PICP proteins were conjugated to biotin using a kit (EZ-LINKTMSulfo-NHS-LC-Biotinylation kit, Pierce Inc., USA). Thereafter, a procedure of screening the constructed libraries using MACS and FACS and analyzing the induced pool was repeated. Through this, the expression level of antibody Fab and the binding affinity of biotinylated PICP can be analyzed.
The biotinylated PICP (500 nM) was conjugated to Fab library expressed on the yeast cell surface at 25° C. for 1 hour. The Fab library incubated with PICP was conjugated with streptavidin-microbead (Miltenyi Biotec Inc., Germany) at 4° C. for 10 minutes, and then clones conjugated with the biotinylated PICP were selected using magnetic-activated cell sorting (MACS). […] Thereafter, FACS procedure was twice repeated using biotinylated PICP with concentrations of 250 nM and 100 nM. […]

Experiment [3] concerns the target T2, recombinant procollagen type III C-terminal propeptide (PIIICP), His-tagged (UniProt P02461 1222-1466).
T2 construct: domain: C-terminal propeptide; Made in HEK293F cells in the same way as PICP; also called comparative antigen; not shown: His tag conjugated to the PIIICP protein
T2 sequence (looked up): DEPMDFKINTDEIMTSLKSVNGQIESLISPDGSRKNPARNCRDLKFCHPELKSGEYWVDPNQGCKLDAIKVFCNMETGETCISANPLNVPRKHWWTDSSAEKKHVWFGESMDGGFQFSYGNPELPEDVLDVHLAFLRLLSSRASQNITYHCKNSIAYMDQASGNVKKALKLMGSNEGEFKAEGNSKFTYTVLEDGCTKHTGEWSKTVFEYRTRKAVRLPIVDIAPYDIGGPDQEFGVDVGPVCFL
The experiment is described as follows: sandwich ELISA, 2D IgG coated at 16 ug/ml as capture antibody, PIIICP titrated, rabbit anti-PICP antibody and goat anti-rabbit IgG-HRP for detection.

The target of experiment [4] is T1, recombinant PICP protein (procollagen …). The experiment is described as follows: SPR, Biacore 2000, PICP immobilized (185 RU), IgG 6.25-100 nM. The text has this:
Specific experiment conditions are as follows.
The affinity was obtained from kinetic rate constants (ka and kd) and equilibrium dissociation constants (KD) using BIA evaluation ver. 3.2 software.

For experiment [5], the target named is T2, recombinant procollagen type III …. The experiment is described as follows: indirect ELISA, PIIICP coated at 2 ug/ml, anti-human IgG-HRP. The method, then:
PICP and PIIICP antigens prepared in <Example 1> were immobilized at a concentration of 2 ug/ml on microtiter plates at room temperature for 1 hour, and blocked with 1×PBST containing 2% skim milk at room temperature for 1 hour. 2D IgG and 4G IgG were serially diluted within a range of 15.625-1000 ng/ml, and added at 100 μl per well to the blocked plates, followed by incubation at room temperature for 1 hour. Human IgG-HRP antibodies (Millipore, 1:2,000) as secondary antibodies were added at 10 μl per well, followed by incubation at room temperature for 1 hour. The incubated microtiter plates were washed three or four times with 1×PBST, and then TMB solution was added at 50 μl per well to conduct a color development reaction at room temperature for 5-10 minutes. The color development reaction was stopped using H₂SO₄ (1 M), and then the absorbance was read at 450 nm using ELISA reader.

The target of experiment [6] is T1, recombinant PICP protein (procollagen …). The experiment is described as follows: sandwich ELISA, IgG coated as capture antibody, PICP titrated, polyclonal PICP antibody and anti-rabbit-HRP for detection. The method, then: The binding specificity to PICP by IgG fragment having VH and VL of clones 1 and 2 (referred to as clone IgG and clone 2 IgG) was investigated by sandwich ELISA (FIG. 9).
2D, 4G, clone 1, clone 2 IgG antibodies as capture antibodies were coated on the microtiter plates, and PICP and PIIICP as antigens were added to each well (100 μl/well) at different concentrations, followed by incubation for 1 hour. After washing with 1×PBST (0.05 Tween 20), detection antibodies (polyclonal PICP antibodies) were diluted with 1×PBST, and added in 100 μl for each, followed by incubation for 1 hour. After washing with 1×PBST, rabbit-HRP (Millipore) antibodies were diluted with 1×PBST, and added in 100 μl for each, followed by incubation for 1 hour. After washing with 1×PBST, TMB solution was added to each well (50 μl/well) to investigate a color development reaction, and then the reaction was stopped by addition of 50 μl of 2N stop solution (H₂SO₄). The absorbance was read at a wavelength of 450 nm using ELISA reader (reference 620 nm).

Experiment [7] concerns the target T3, recombinant PICP α2 chain (c-Myc tag at the N-terminus) (human, UniProt P08123 1120-1366).
T3 construct: Co-expressed with the α1 chain in HEK293F cells; also called recombinant procollagen α2 chain; not shown: c-Myc tag at the N-terminus
T3 sequence: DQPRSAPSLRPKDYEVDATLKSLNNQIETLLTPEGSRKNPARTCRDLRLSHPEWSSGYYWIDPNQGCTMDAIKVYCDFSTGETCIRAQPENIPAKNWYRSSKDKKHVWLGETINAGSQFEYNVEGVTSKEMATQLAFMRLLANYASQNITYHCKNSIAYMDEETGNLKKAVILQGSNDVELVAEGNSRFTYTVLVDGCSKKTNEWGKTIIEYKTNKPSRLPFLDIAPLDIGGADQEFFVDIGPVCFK
Kind of experiment: Western blot (anti-His, anti-c-Myc) of Ni/NTA-purified recombinant PICP, non-reducing and reducing SDS-PAGE. The method, then:
The pSecTag2A-PICP α1 vector and the pSecTag2A-PICP α2 vector were mixed at a molar ratio of 2:1, and co-transfected into HEK293F cells. The co-transfected cells were cultured for 7 days, and culture supernatants were harvested, and the proteins were isolated and purified by the same method as in example <1-2>. PIIICP protein was also expressed, isolated, and purified by the same method. The sizes and purities of the purified proteins were analyzed using SDS-PAGE and western blotting (anti-His tag, anti-c-Myc tag) in reducing or non-reducing conditions.

B1: 2D scFv (scFv)
chain: EVQLLESGGGLVQPGGSLRLSCAASGFTFSSYYMSWVRQAPGKGLEWVSGISPGSGSKYYADSVKGRFTISRDNSKNTLYLQMNSLRAEDTAVYYCARATVPCKGPACYSAYGMDVWGQGTLVTVSSGGGGSGGGGSGGGGSQSVLTQPPSAPGTPGQRVTISCSGSSSNIGNNAVNWYQQLPGTAPKLLIYSNSHRPSGVPDRFSGSKSGTSASLAISGLRSEDEADYYCGSWDASLNGYVFGGGTKLTVLG
As to B1, in experiment [1], the concentration for a half-maximal effect (EC50 (read off the curve)) is around 0.3 µg/mL.

B2: clone 1 Fab (Fab, V domains shown)
VH: EVQLVESGGGLVQPGGSLRLSCAASGFTFSYYWMSWVRQAPGKGLEWVSTISYGGGGKYYADSVKGRFTISRDNSKNTLYLQMNSLRAEDTAVYYCVRSYGAIPPNTIDYWGQGTLVTVSS
VL: DIQMTQSPSSLSASVGDRVTITCRASQGISSDLAWYQQKPGKAPKLLIYAASSLQSGVPSRFSGSGSGTDFTLTISSLQPEDFATYYCQQPYSTPSTFGQGTKVEIK
Regarding B2, the binding result in experiment [2] was “binds”.

B3: 4G scFv (scFv)
chain: EVQLLESGGGLVQPGGSLRLSCAASGFTFSNYYMSWVRQAPGKGLEWVSLISSGNGNKYYADSVKGRFTISRDNSKNTLYLQMNSLRAEDTAVYYCARGSRRCSGAPCYSAYGMDVWGQGTLVTVSSGGGGSGGGGSGGGGSQSVLTQPPSASGTPGQRVTISCTGSSSNIGNNSVTWYQQLPGTAPKLLIYANSQRPSGVPDRFSGSKSGTSASLAISGLRSEDEADYYCGAWDDSLNAYVFGGGTKLTVLG
For B3, the “EC50 (read off the curve)” value in experiment [1] was around 0.1 µg/mL.

B4: 2D IgG (antibody, V domains shown)
VH: EVQLLESGGGLVQPGGSLRLSCAASGFTFSSYYMSWVRQAPGKGLEWVSGISPGSGSKYYADSVKGRFTISRDNSKNTLYLQMNSLRAEDTAVYYCARATVPCKGPACYSAYGMDVWGQGTLVTVSS
VL: QSVLTQPPSAPGTPGQRVTISCSGSSSNIGNNAVNWYQQLPGTAPKLLIYSNSHRPSGVPDRFSGSKSGTSASLAISGLRSEDEADYYCGSWDASLNGYVFGGGTKLTVLG
notes: IgG made from 2D scFv VH and VL in pcDNA3.4 and expressed in 293F cells; Detected with human IgG-HRP; also called IgG containing the variable regions of clone 2D
For B4, in experiment [3], the binding result is reported as “no binding (tested: 100 ng/ml)”. For the same molecule, in experiment [4], the Kd came to 11.6 nM, the koff came out at 0.00276 s⁻¹ and the kon worked out at 237000 M⁻¹ s⁻¹.

B5: 4G IgG (antibody, V domains shown)
VH: EVQLLESGGGLVQPGGSLRLSCAASGFTFSNYYMSWVRQAPGKGLEWVSLISSGNGNKYYADSVKGRFTISRDNSKNTLYLQMNSLRAEDTAVYYCARGSRRCSGAPCYSAYGMDVWGQGTLVTVSS
VL: QSVLTQPPSASGTPGQRVTISCTGSSSNIGNNSVTWYQQLPGTAPKLLIYANSQRPSGVPDRFSGSKSGTSASLAISGLRSEDEADYYCGAWDDSLNAYVFGGGTKLTVLG
notes: IgG made from 4G scFv VH and VL in pcDNA3.4 and expressed in 293F cells; Detected with human IgG-HRP; also called IgG containing the variable regions of clone 4G
Turning to B5, in experiment [5], the binding result is “no binding (tested: 1000 ng/ml)”. Moreover, in experiment [4], the Kd amounted to 16.8 nM, the off-rate (koff) stood at 0.00319 s⁻¹ and the kon is 190000 M⁻¹ s⁻¹.

B6: clone 2 IgG (antibody, V domains shown)
VH: EVQLVESGGGLVQPGGSLRLSCAASGFTFSSYWMSWVRQAPGKGLEWVSVISYDGGNKYYADSVKGRFTISRDNSKNTLYLQMNSLRAEDTAVYYCAKWANDHNSDLNFDYWGQGTLVTVSS
VL: DIQMTQSPSSLSASVGDRVTITCRASQGISTDLGWYQQKPGKAPKLLIYAASSLESGVPSRFSGSGSGTDFTLTISSLQPEDFATYYCQQHDSYPTTFGQGTKVEIKR
notes: Chimeric: human Fab VH and VL of yeast clone 2 on mouse IgG2a heavy chain constant domains and mouse kappa light chain
Regarding B6, the binding result in experiment [6] is “binds”.

B7: clone 2 Fab (Fab, V domains shown)
VH: EVQLVESGGGLVQPGGSLRLSCAASGFTFSSYWMSWVRQAPGKGLEWVSVISYDGGNKYYADSVKGRFTISRDNSKNTLYLQMNSLRAEDTAVYYCAKWANDHNSDLNFDYWGQGTLVTVSS
VL: DIQMTQSPSSLSASVGDRVTITCRASQGISTDLGWYQQKPGKAPKLLIYAASSLESGVPSRFSGSGSGTDFTLTISSLQPEDFATYYCQQHDSYPTTFGQGTKVEIK
Regarding B7, the binding result in experiment [2] is reported as “binds”.

B8: clone 1 IgG (antibody, V domains shown)
VH: EVQLVESGGGLVQPGGSLRLSCAASGFTFSYYWMSWVRQAPGKGLEWVSTISYGGGGKYYADSVKGRFTISRDNSKNTLYLQMNSLRAEDTAVYYCVRSYGAIPPNTIDYWGQGTLVTVSS
VL: DIQMTQSPSSLSASVGDRVTITCRASQGISSDLAWYQQKPGKAPKLLIYAASSLQSGVPSRFSGSGSGTDFTLTISSLQPEDFATYYCQQPYSTPSTFGQGTKVEIKR
notes: Chimeric: human Fab VH and VL of yeast clone 1 on mouse IgG2a heavy chain constant domains and mouse kappa light chain; also called clone IgG
B8: the binding result in experiment [6] is recorded as “binds”.

B9: recombinant PICP α1 chain (8xHis tag at the N-terminus) (other)
chain: DDANVVRDRDLEVDTTLKSLSQQIENIRSPEGSRKNPARTCRDLKMCHSDWKSGEYWIDPNQGCNLDAIKVFCNMETGETCVYPTQPSVAQKNWYISKNPKDKRHVWFGESMTDGFQFEYGGQGSDPADVAIQLTFLRLMSTEASQNITYHCKNSVAYMDQQTGNLKKALLLQGSNEIEIRAEGNSRFTYSVTVDGCTSHTGAWGKTVIEYKTTKTSRLPIIDVAPLDVGAPDQEFGFDVGPVCFL
notes: Co-expressed with the α2 chain in HEK293F cells; also called recombinant procollagen α1 chain; not shown: 8xHis tag at the N-terminus
For B9, the binding result in experiment [7] is reported as “binds”.
